Substitutions are numbered along the chain they refer to. Names and notes keep the numbering of the source.
T1: PUF4 RNA-binding domain (Saccharomyces cerevisiae, UniProt P25339 537-888)
T1 sequence: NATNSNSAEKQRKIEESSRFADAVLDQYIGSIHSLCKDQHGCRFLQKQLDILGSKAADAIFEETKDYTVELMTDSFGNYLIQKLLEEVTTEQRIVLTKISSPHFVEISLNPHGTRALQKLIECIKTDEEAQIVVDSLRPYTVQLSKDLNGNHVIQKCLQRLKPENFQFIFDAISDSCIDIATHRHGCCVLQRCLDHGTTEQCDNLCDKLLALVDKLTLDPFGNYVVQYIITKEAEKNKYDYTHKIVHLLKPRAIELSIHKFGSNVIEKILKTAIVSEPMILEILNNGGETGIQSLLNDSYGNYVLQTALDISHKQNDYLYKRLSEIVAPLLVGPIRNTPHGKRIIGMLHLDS

B1: Ib_S1_P5E.1_K5.1_C5.1_H5.1_A5.1_[A7T]_F5.1_[T8A]_T5.1 (ssRNA)
RNA: UCUCUUUGUAUUUAUAUCUCUU
B2: Ib_S1_P5E.1_K5.1_C5.1_H5.1_A5.1_[A7C]_F5.1_[T8A]_T5.1 (ssRNA)
RNA: UCUCUUUGUAUUCAUAUCUCUU
B3: Id_ii_S2_P5E.3_K5.2_C5.2_[C-2A]_H5.2_A5.1_F5.1_T5.2_[T11C]_[A12T] (ssRNA)
RNA: UUUGAUUAAUAUGAUAUCGUUCUUUCUAUUAUAUUAUUACUUUCUUUCUCGAUAUCAUAUUAAUCUUU
B4: Id_ii_S2_P5E.3_K5.2_C5.2_[T-1C]_H5.2_A5.1_F5.1_T5.2_[T11A] (ssRNA)
RNA: B3 RNA with A28C, U29C, C40A, U41A
B5: Id_ii_S2_P5E.3_K5.2_C5.2_[T-1C]_H5.2_A5.1_F5.1_T5.2_[T11C]_[A12T] (ssRNA)
RNA: B3 RNA with A28C, U29C
B6: Id_ii_S2_P5E.3_K5.2_C5.2_[T-1A]_H5.2_A5.1_F5.1_T5.2_[T11C]_[A12G] (ssRNA)
RNA: B3 RNA with A28C, U29A, U41G
B7: Id_ii_S2_P5E.3_K5.2_C5.2_[T-1A]_H5.2_A5.1_F5.1_T5.2_[T11A]_[A12C] (ssRNA)
RNA: B3 RNA with A28C, U29A, C40A, U41C
B8: Id_ii_S2_P5E.3_K5.2_C5.2_H5.2_A5.1_F5.1_T5.2_[T11G]_[A12T] (ssRNA)
RNA: B3 RNA with A28C, C40G
B9: Id_ii_S2_P5E.3_K5.2_C5.2_H5.2_A5.1_F5.1_T5.2_[T11C]_[A12C] (ssRNA)
RNA: B3 RNA with A28C, U41C
B10: Id_ii_S2_P5E.4_K5.3_C5.2_[C-2G]_[T-1C]_H5.3_A5.1_F5.1_T5.2_[T11C]_[A12T] (ssRNA)
RNA: B3 RNA with A28G, U29C, U30A, A31C, U32A, A33C
B11: Id_ii_S2_P5E.4_K5.3_C5.2_[C-2G]_[T-1C]_H5.3_A5.1_F5.1_T5.2_[T11A]_[A12T] (ssRNA)
RNA: B3 RNA with A28G, U29C, U30A, A31C, U32A, A33C, C40A
B12: Id_ii_S2_P5E.3_K5.2_C5.2_[T-1A]_H5.2_A5.1_F5.1_T5.2_[A12C] (ssRNA)
RNA: B3 RNA with A28C, U29A, C40U, U41C
B13: Id_ii_S2_P5E.3_K5.2_C5.2_H5.2_A5.1_F5.1_T5.2_[T11C]_[A12G] (ssRNA)
RNA: B3 RNA with A28C, U41G
B14: Id_ii_S2_P5E.3_K5.2_C5.2_[T-1C]_H5.2_A5.1_F5.1_T5.2_[T11C]_[A12C] (ssRNA)
RNA: B3 RNA with A28C, U29C, U41C
B15: Id_ii_S2_P5E.3_K5.2_C5.2_[T-1G]_H5.2_A5.1_F5.1_T5.2_[T11G]_[A12C] (ssRNA)
RNA: B3 RNA with A28C, U29G, C40G, U41C
B16: Id_ii_S2_P5E.3_K5.2_C5.2_[T-1C]_H5.2_A5.1_F5.1_T5.2_[T11A]_[A12G] (ssRNA)
RNA: B3 RNA with A28C, U29C, C40A, U41G
B17: Id_ii_S2_P5E.3_K5.2_C5.2_H5.2_A5.1_F5.1_T5.2_[T11C]_[A12T] (ssRNA)
RNA: B3 RNA with A28C
B18: Id_ii_S2_P5E.3_K5.2_C5.2_[C-2A]_H5.2_A5.1_F5.1_T5.2_[A12C] (ssRNA)
RNA: B3 RNA with C40U, U41C
B19: Id_ii_S2_P5E.3_K5.2_C5.2_H5.2_A5.1_F5.1_T5.2_[A12C] (ssRNA)
RNA: B3 RNA with A28C, C40U, U41C
B20: Id_ii_S2_P5E.3_K5.2_C5.2_[T-1A]_H5.2_A5.1_F5.1_T5.2_[A12T] (ssRNA)
RNA: B3 RNA with A28C, U29A, C40U
B21: Id_ii_S2_P5E.3_K5.2_C5.2_[T-1A]_H5.2_A5.1_F5.1_T5.2_[T11C]_[A12T] (ssRNA)
RNA: B3 RNA with A28C, U29A
B22: Id_ii_S2_P5E.4_K5.3_C5.2_[C-2G]_[T-1C]_H5.3_A5.1_F5.1_T5.2_[A12T] (ssRNA)
RNA: B3 RNA with A28G, U29C, U30A, A31C, U32A, A33C, C40U
B23: Id_ii_S2_P5E.3_K5.2_C5.2_[T-1A]_H5.2_A5.1_F5.1_T5.2_[T11A] (ssRNA)
RNA: B3 RNA with A28C, U29A, C40A, U41A
B24: Id_ii_S2_P5E.4_K5.3_C5.2_[C-2G]_H5.3_A5.1_F5.1_T5.2_[T11C]_[A12C] (ssRNA)
RNA: B3 RNA with A28G, U30A, A31C, U32A, A33C, U41C
B25: Id_ii_S2_P5E.3_K5.2_C5.2_H5.2_A5.1_F5.1_T5.2_[T11G]_[A12C] (ssRNA)
RNA: B3 RNA with A28C, C40G, U41C
B26: Id_ii_S2_P5E.3_K5.2_C5.2_[T-1A]_H5.2_A5.1_F5.1_T5.2_[T11A]_[A12T] (ssRNA)
RNA: B3 RNA with A28C, U29A, C40A
B27: Id_ii_S2_P5E.4_K5.3_C5.2_[C-2G]_[T-1C]_H5.3_A5.1_F5.1_T5.2_[T11A]_[A12C] (ssRNA)
RNA: B3 RNA with A28G, U29C, U30A, A31C, U32A, A33C, C40A, U41C
B28: Id_ii_S2_P5E.4_K5.3_C5.2_[C-2G]_[T-1C]_H5.3_A5.1_F5.1_T5.2_[T11A] (ssRNA)
RNA: B3 RNA with A28G, U29C, U30A, A31C, U32A, A33C, C40A, U41A
B29: Id_ii_S2_P5E.3_K5.2_C5.2_[T-1G]_H5.2_A5.1_F5.1_T5.2_[T11A]_[A12C] (ssRNA)
RNA: B3 RNA with A28C, U29G, C40A, U41C

Molecular target: T1, PUF4 RNA-binding domain
Assay: Mg; RNA-MaP; 20 mM Na-HEPES pH 7.4, 30 mM KOAc, 0.75 mM MgCl2, 0.1% Tween-20, 5% glycerol, 0.1 mg/mL BSA, 2 mM DTT; 25 C; 0.0125-409.6 nM protein
Conditions: tags: N-His6-TEV cleaved; C-SNAP kept, Cy3B-labelled; label: tethered on chip by stalled RNA polymerase

Row | Binder | Kd
1 | B1 | 5.27 nM
2 | B2 | 14 nM
3 | B3 | 97.6 nM
4 | B4 | 151 nM
5 | B5 | 57.9 nM
6 | B6 | 372 nM
7 | B7 | 96.4 nM
8 | B8 | 462 nM
9 | B9 | 92.1 nM
10 | B10 | 409 nM
11 | B11 | 408 nM
12 | B12 | 151 nM
13 | B13 | 426 nM
14 | B14 | 87.3 nM
15 | B15 | 28.1 nM
16 | B16 | 887 nM
17 | B17 | 77.9 nM
18 | B18 | 122 nM
19 | B19 | 65.7 nM
20 | B20 | 223 nM
21 | B21 | 90.7 nM
22 | B22 | 341 nM
23 | B23 | 246 nM
24 | B24 | 3.03 nM
25 | B25 | 127 nM
26 | B26 | 131 nM
27 | B27 | 451 nM
28 | B28 | 549 nM
29 | B29 | 15.5 nM

Source: paper PMC9352680, “A comprehensive thermodynamic model for RNA binding by the Saccharomyces cerevisiae Pumilio protein PUF4”
